From patent US12673985B2, “Method for the treatment or prophylaxis of cancer by targeting the extracellular portion of keratin 14 (KRT14) residing on cancer cells” (Hudson Institute of Medical Research, priority 2019, dated 2026) come the findings set out here.

Series [1] is described as follows: Tissue distribution and clearance by fluorescence in mice without tumours. Type of series: in vivo. The text has this: Control mice received vehicle (PBS) alone.
The target of the next series is T1, KRT14 (Homo sapiens, UniProt P02533).
T1 sequence (P02533 1-472): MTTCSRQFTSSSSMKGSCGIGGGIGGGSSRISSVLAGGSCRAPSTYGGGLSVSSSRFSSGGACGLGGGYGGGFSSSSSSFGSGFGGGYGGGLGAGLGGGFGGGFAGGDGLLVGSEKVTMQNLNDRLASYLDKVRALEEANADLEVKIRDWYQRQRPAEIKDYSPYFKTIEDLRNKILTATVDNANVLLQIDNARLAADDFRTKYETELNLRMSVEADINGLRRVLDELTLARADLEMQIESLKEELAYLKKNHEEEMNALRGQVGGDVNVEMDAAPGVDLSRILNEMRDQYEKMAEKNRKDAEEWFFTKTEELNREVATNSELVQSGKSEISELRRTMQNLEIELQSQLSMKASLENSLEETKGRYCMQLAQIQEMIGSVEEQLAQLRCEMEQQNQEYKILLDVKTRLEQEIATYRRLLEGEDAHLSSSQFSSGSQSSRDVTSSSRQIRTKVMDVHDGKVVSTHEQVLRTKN
Briefly: Immunohistochemical staining of FFPE tumour tissue sections. As to conditions: 2 μg/ml-0.25 μg/ml, overnight incubation. The protocol:
Human Tissue Arrays and Immunohistochemistry. Immunohistochemistry was performed on tissue micrarray (TMA) sections purchased from USBIOMAX (#ov2085, #ov20811) or generated in house (tumour and fallopian tube) as previously described [Bilandzic et al. (2014) Cancer Lett 354(1):107-114; Rainczuk et al. (2013) J Proteome Res; Salamonsen et al. (2013) Fertil Steril 99(4):1086-92](Supplementary Data 6 and 7). For antigen retrieval, sections were incubated for 10 minutes in 50 mM glycine (pH 3.5) at 90° C. Sections were incubated overnight at 4° C. with Rb-KRT14 antibody (1:100, Sigma, SAB4501657) and mAb AN-17 (1:500) in 0.1% w/v BSA/PBS. Subsequent steps were performed at room temperature, with PBS washes between incubations. […] Antibody binding was detected as a brown precipitate after development with 3,3′-diaminobenzidine tetrahydrochloride, and Harris hematoxylin was used as counterstain. […] Positive immunostaining was assessed relative to parallel sections exposed to an isotype (IgG) control. Immunostaining in tumor and stromal tissue was assessed using Aperio ImageScope (v 12.3.3) as described (Rainczuk et al. (2013) supra). […]

Series [2] has as its system Murine ID8 ovarian tumour. Nature of the series: Treatment of established primary ID8 ovarian tumours in syngeneic mouse model. Type of series: in vivo, C57BL/6 mice. As to conditions: 5 mg/kg i.p. bi-weekly for 3 weeks. The protocol: Mice with primary tumours (n=10/group) received mAb AN-17 at 5 mg/kg by intraperitoneal injection bi-weekly, for a period of 3 weeks. Control animals received an equivalent dose of isotype-matched control IgG kappa antibody (Control Group 1); or and equivalent volume of vehicle (PBS) alone (Control Group 2). Following 3 weeks of bi-weekly treatment (Mondays and Thursdays), all mice were culled and assessed for tumour size and weight. Two additional, non-tumour bearing animals were used as non-surgical controls.

Series [3] relates to SJ-GBM2 primary glioblastoma multiforme. Briefly: In vitro wound repair assay. The series is classed as cell-based. As to conditions: mAb 1 μg/ml; 16 hrs. The protocol: In vitro wound repair assays were conducted on the following cancer cell lines: BT16 atypical teratoid rhabdoid (brain) carcinoma, NCI-H1573 lung adenocarcinoma, SJ-GBM2 primary glioblastoma multiforme, AN3CA endometrial carcinoma, SW620 colorectal carcinoma and MDA-MB-468 breast carcinoma. Cells were grown in complete medium to confluency in a 12-well plate, and subsequently serum-starved overnight to synchronize at G0. The following day, cell culture medium was removed and the cell monolayers were wounded by scraping with a pipette tip attached to suction. Non-adherent cells were removed by gentle washes with phosphate buffered saline (PBS) and complete growth medium was added to each well, in either the absence or presence of mAb AN-17 (at 1 μg/ml). The wound area was imaged every hour for 0-24 hours. Wound closure was measured in image series using AnalySIS LS Research Software (Olympus) to determine the area of the wound on each day. Experiments were repeated in triplicate with at least six wound areas observed per growth condition.

For the next series, the system named is ID8 ovarian tumour. To be noted: mouse, in vivo.
Series [4] has as its system OVCAR4 ovarian cancer cells. Briefly: Real time cell analysis (RTCA) of proliferation with cisplatin and mAb AN-17. Type of series: cell-based, human. The protocol:
Real time cell analysis (RTCA) was conducted as previously described (PMID: 31443478; Bilandzic et al., Cancers (Basel). 2019; 11(9), E1228) using an xCELLigence RTCA SP 96-well instrument (ACEA Biosciences). Cell lines were synchronized in G0 by overnight incubation in serum-free media and were seeded at 0.5×10^3 cells/0.15 ml/per well. […] Impedance readings were taken every 15 minutes for the experimental duration. mAb AN-17 comprises the heavy chain variable region of SEQ ID NO:3 and the light chain variable region of SEQ ID NO:5, encoded by the nucleic acid sequences of SEQ ID NOs:2 and 4, respectively (see also FIGS. 21 and 22A-22B).

Entries after “also recorded” stand apart in the source; their conditions may differ.

B1: mAb AN-17: monoclonal anti-KRT14 antibody; heavy chain variable region SEQ ID NO:3, light chain variable region SEQ ID NO:5 (clone AN-17A RG4.E5b.A7.B4) (antibody, listed as Mus musculus, V domains shown)
VH: QVQLKESGPGLVAPSQSLSITCTVSGFSLSRYSVHWVRQPPGKGLEWLGMIWGGGSTDYNSALKSRLSISKDNSKSQVFLKMNSLQTDDTAMYYCARKDYGYSYFDYWGQGTTLTVSS
VL: DVLMTQTPLSLPVSLGDQASISCRSSQSIVHSNGNTYLEWYLQKPGQSPKLLIYKVSNRFSGVPDRFSGSGSGTDFTLKISRVEAEDLGVYYCFQGSHVPFTFGSGTKLEIKRADAAPTVS
For B1, the “non-selective accumulation or retention in healthy tissues” value in series [1] (doses from 0.5 mg/kg to 10 mg/kg i.p.) is given as “does not exhibit non-selective accumulation or retention in healthy tissues; also recorded: No non-specific retention”. The “detectability in organs after 7 days” value in series [1] (doses from 0.5 mg/kg to 10 mg/kg i.p., even at the highest dose) was “virtually undetectable in all organs after 7 days; also recorded: largely undetectable after 7 days”. In addition, the “antibody-associated fluorescence in brain” value in series [1] (single dose 0.5 mg/kg i.p.) was “no fluorescence was detected in brain”. Also, the “tissues with antibody-associated fluorescence” value in series [1] (single dose 0.5 mg/kg i.p.) is “observed in intestine, reproductive organs, liver, kidney, spleen, lung and heart”. Further, the “specific accumulation / non-specific retention in healthy tissues vs isotype control” value in series [1] (single dose 0.5 mg/kg i.p., 7 day period, 0.5 mg/kg) is recorded as “no specific accumulation; also recorded: no non-specific retention”. For the same molecule, the “clearance from organs by day 7” value in series [1] (single dose 0.5 mg/kg i.p., 0.5 mg/kg) is recorded as “largely cleared from all organs; also recorded: almost undetectable after 7 days”. Also, the figures for the “staining localization in tumour tissue” value in the series with KRT14 and with KRT14 (listed as mAb A-17) were “Staining was restricted to tumour epithelium” and “staining observed specifically in the tumour epithelium”, respectively. Further, the “adverse effects during treatment” value in series [2] is listed as “had no observable adverse effects on animals; also recorded: no adverse effects noted during the treatment period”. Besides, the “primary ovarian tumours at cull / tumour progression” value in series [2] (n=10/group) is listed as “no tumours could be identified; also recorded: complete regression”. Also, in series [3], the “wound closure / migration, SJ-GBM2” value was “failed to close the wound; also recorded: impaired”. The “initial levels in tumour tissue vs reproductive tract of mice without tumours” value in the series on ID8 ovarian tumour was 2 orders of magnitude. Besides, the “enhancement of the toxicity of cisplatin” value in series [4] (cisplatin at sub-lethal doses) is reported as “significantly enhanced the toxicity of cisplatin”. Also, the “increase in sensitivity of cells to standard platinum chemotherapy” value in series [4] (in vitro) is “at least 10 fold”. Also, in series [4] (mAb AN-17 alone (1 ug/ml)), the “cell viability or proliferation” value is on record as “had no effect on cell viability or proliferation”.
